Reference: article PMC8991256

Biological target: LH1–RC core complex, monomeric component of the native dimer (Rhodobacter sphaeroides f. sp. denitrificans strain IL106 (endogenous)) (UniProt Q3J1A4)
Experiment: cryo-EM structure; native dimeric LH1–RC from Rba. sphaeroides IL106 in DDM, ~5 mg/ml; C1 symmetry, 2.75 Å

LH1–RC core complex, monomeric component of the native dimer (from UniProt Q3J1A4 1-58; Q3J1A3 1-49; P0C0Y8 1-282; P0C0Y9 1-308; P0C0Y7 1-260; P13402 1-82)
stoichiometry N: 2
